Data taken from patent US20230330196A1, “IMMUNOSUPPRESSIVE AGENTS” (The Trustees of Columbia University in the City of New York, priority 2020, published 2023).

Biological target: T1, PD-1H (Homo sapiens, UniProt Q9H7M9)
T1 construct: Flag (N); expressed in transfected cells; host or cells: HEK293
Experiment: Co-immunoprecipitation of c-myc tagged MMP-13 constructs with Flag-PD-1H in HEK293 cells
Assay type: binding
Conditions: HEK293 cells co-transfected with Flag-PD-1H; IP with anti-c-myc; FIG. 5A
Procedure: To identify key binding domains between PD-1H and MMP-13, a series of truncated deletion mutants was tested. The MMP-13 zymogen has a pro-peptide domain (aa 20-103) that maintains latency, a catalytic domain (aa 103-268) containing the catalytic zinc-binding motif, and a hinge linker region (aa 269-280) that connects the catalytic domain region with the C-terminal hemopexin domain (aa 281-471).
WCL were analyzed as input. […].

B1: Hem: MMP-13 truncation mutant containing the hemopexin domain (delta aa 37-267) (protein)
chain: LPLPSGGDEDDLSEEDLPGDEDPNPKHPKTPDKCDPSLSLDAITSLRGETMIFKDRFFWRLHPQQVDAELFLTKSFWPELPNRIDAAYEHPSHDLIFIFRGRKFWALNGYDILEGYPKKISELGLPKEVKKISAAVHFEDTGKTLLFSGNQVWRYDDTNHIMDKDYPRLIEEDFPGIGDKVDAVYEKNGYIYFFNGPIQFEYSIWSNRIVRVMPANSILWC
modifications: left off: small tags and cut ends
binding to PD-1H (co-IP): retained only a fraction of the wild-type binding activity
